Source: US10246503B2, “Method of improving the pharmacokinetic profile of a therapeutic polypeptide and the use thereof” (BEIJING ANXINHUAIDE BIOTECH. CO., LTD, priority 2012, dated 2019)
Positions count from the first letter of the chain named. Numbers in names are those of the source.

B1: GLP-1(A8G/G22E/R36G)-Fn8-p285-COL18NC1 (ligand)
chain: HGEGTFTSDVSSYLEEQAAKEFIAWLVKGGGSGGGSGGGSGGGSGGGSGSGGAVPPPTDLRFTNIGPDTMRVTWAPPPSIDLTNFLVRYSPVKNEEDVAELSISPSDNAVVLTNLLPGTEYVVSVSSVYEQHESTPLRGRQKTGGGGSGGGSGSGSESGSGGGSTSSGTGSETESPGSGSESGSGPSSAGSGSGSESGSGSGSSGPGSTGGSGSESGSGPGSSGTGGTATGSGSESGSGPGSSGPGSTGSGSGSESGSGSGSSGTGSTGGSGSESGSGPGSPRPGSTGTGSGSESGSGPGSSERGSAGGSGSESGSGTSESSASGSTGGSGSESGSGSESGSGSGSESGSGPESPGSGGSGSESGSGTSGSTGSGSESGSGPGSSGPGSTGSGSGSESGSGSGSSGTGSTGGSGSESGSGGGSGGGSGGGASSGVRLWATRQAMLGQVHEVPEGWLIFVAEQEELYVRVQNGFRKVQLEARTPLPRG
B2: GLP-1(A8G/G22E/R36G)-Fn8-p246-COL15NC1 (ligand)
chain: HGEGTFTSDVSSYLEEQAAKEFIAWLVKGGGSGGGSGGGSGGGSGGGSGSGGAVPPPTDLRFTNIGPDTMRVTWAPPPSIDLTNFLVRYSPVKNEEDVAELSISPSDNAVVLTNLLPGTEYVVSVSSVYEQHESTPLRGRQKTGGGGSGGGSGSGSESGSGGGSTSSGTGSETESPGSGSESGSGPSSAGSGSGSESGSGSGSSGPGSTGGSGSESGSGPGSSGTGGTATGSGSESGSGPGSSGPGSTGSGSGSESGSGSGSSGTGSTGGSGSESGSGPGSPRPGSTGTGSGSESGSGPGSSERGSAGGSGSESGSGTSESSASGSTGGSGSESGSGSESGSGSGSESGSGPESPGSGGSGSESGSGTSGSTGSGSESGSGGGSGGGSGGNLVTAFSNMDDMLQKAHLVIEGTFIYLRDSTEFFIRVRDGWKKLQLGELIPIPA
B3: GLP-1(A8G/G22E/R36G)-Fn8-p246-COL19NC2 (ligand)
chain: HGEGTFTSDVSSYLEEQAAKEFIAWLVKGGGSGGGSGGGSGGGSGGGSGSGGAVPPPTDLRFTNIGPDTMRVTWAPPPSIDLTNFLVRYSPVKNEEDVAELSISPSDNAVVLTNLLPGTEYVVSVSSVYEQHESTPLRGRQKTGGGGSGGGSGSGSESGSGGGSTSSGTGSETESPGSGSESGSGPSSAGSGSGSESGSGSGSSGPGSTGGSGSESGSGPGSSGTGGTATGSGSESGSGPGSSGPGSTGSGSGSESGSGSGSSGTGSTGGSGSESGSGPGSPRPGSTGTGSGSESGSGPGSSERGSAGGSGSESGSGTSESSASGSTGGSGSESGSGSESGSGSGSESGSGPESPGSGGSGSESGSGTSGSTGSGSESGSGGGSGGGSGGGIPADAVSFEEIKKYINQEVLRIFEERMAVFLSQLKLPAAMLAAQAYGRP
B4: GLP-1-Fn8-COL18NC1 (ligand)
chain: HAEGTFTSDVSSYLEGQAAKEFIAWLVKGRGGGGSGGGGSAVPPPTDLRFTNIGPDTMRVTWAPPPSIDLTNFLVRYSPVKNEEDVAELSISPSDNAVVLTNLLPGTEYVVSVSSVYEQHESTPLRGRQKTGGGGSGGGASSGVRLWATRQAMLGQVHEVPEGWLIFVAEQEELYVRVQNGFRKVQLEARTPLPRG
B5: GLP-1(A8S/G22E)-Fn8-COL18NC1 (ligand)
chain: B4 chain with A2S, G16E
B6: GLP-1(A8V/G22E)-Fn8-COL18NC1 (ligand)
chain: B4 chain with A2V, G16E
B7: GLP-1(A8G/G22E)-Fn8-COL18NC1 (ligand)
chain: B4 chain with A2G, G16E
B8: GLP-1(A8G/G22E/R36G)-Fn8-COL18NC1 (ligand)
chain: B4 chain with A2G, G16E, R30G
B9: GLP-1(A8G/G22E/R36G)-Fn8-p245-COL18NC1 (ligand)
chain: HGEGTFTSDVSSYLEEQAAKEFIAWLVKGGGSGGGSGGGSGGGSGGGSGSGGAVPPPTDLRFTNIGPDTMRVTWAPPPSIDLTNFLVRYSPVKNEEDVAELSISPSDNAVVLTNLLPGTEYVVSVSSVYEQHESTPLRGRQKTGGGGSGGGSGSGSTSESGGSTSSGTGSETESPGSGSESTSGPSSAGSGSTSESGSGSGSSGPGSTGGSTSGSESGPGSSGTGGTATGSESGSTSGPGSSGPGSTGSGSTSESGSGSGSSGTGSTGGSESGSTSGPGSPRPGSTGTGSTSGSESGPGSSERGSAGGSESTSGSGTSESSASGSTGGSTSGSESGSESGSGSTSESGSGPESPGSGGSGSTSESGTSGSTGSESTSGSGGGSGGGSGGGASSGVRLWATRQAMLGQVHEVPEGWLIFVAEQEELYVRVQNGFRKVQLEARTPLPRG
B10: GLP1(A8G/G22E/R36G)-Fn8-p246-ACRP30 (ligand)
chain: HGEGTFTSDVSSYLEEQAAKEFIAWLVKGGGSGGGSGGGSGGGSGGGSGSGGAVPPPTDLRFTNIGPDTMRVTWAPPPSIDLTNFLVRYSPVKNEEDVAELSISPSDNAVVLTNLLPGTEYVVSVSSVYEQHESTPLRGRQKTGGGGSGGGSGSGSESGSGGGSTSSGTGSETESPGSGSESGSGPSSAGSGSGSESGSGSGSSGPGSTGGSGSESGSGPGSSGTGGTATGSGSESGSGPGSSGPGSTGSGSGSESGSGSGSSGTGSTGGSGSESGSGPGSPRPGSTGTGSGSESGSGPGSSERGSAGGSGSESGSGTSESSASGSTGGSGSESGSGSESGSGSGSESGSGPESPGSGGSGSESGSGTSGSTGSGSESGSGGGSGGGSGGVYRSAFSVGLETRVTVPNVPIRFTKIFYNQQNHYDGSTGKFYCNIPGLYYFSYHITVYMKDVKVSLFKKDKAVLFTYDQYQEKNVDQASGSVLLHLEVGDQVWLQVYGDGDHNGLYADNVNDSTFTGFLLYHDTN
B11: GLP-1(A8G/G22E)-Fn8-p246-COL18NC1 (ligand)
chain: HGEGTFTSDVSSYLEEQAAKEFIAWLVKGRGSGGGSGGGSGGGSGGGSGSGGAVPPPTDLRFTNIGPDTMRVTWAPPPSIDLTNFLVRYSPVKNEEDVAELSISPSDNAVVLTNLLPGTEYVVSVSSVYEQHESTPLRGRQKTGGGGSGGGSGSGSESGSGGGSTSSGTGSETESPGSGSESGSGPSSAGSGSGSESGSGSGSSGPGSTGGSGSESGSGPGSSGTGGTATGSGSESGSGPGSSGPGSTGSGSGSESGSGSGSSGTGSTGGSGSESGSGPGSPRPGSTGTGSGSESGSGPGSSERGSAGGSGSESGSGTSESSASGSTGGSGSESGSGSESGSGSGSESGSGPESPGSGGSGSESGSGTSGSTGSGSESGSGGGSGGGSGGGASSGVRLWATRQAMLGQVHEVPEGWLIFVAEQEELYVRVQNGFRKVQLEARTPLPRG
B12: GLP-1(A8V/G22E)-Fn8-p246-COL18NC1 (ligand)
chain: B11 chain with G2V
B13: GLP-1(A8G/G22E/R36G)-Fn8-p246-COL18NC1 (ligand)
chain: B11 chain with R30G
B14: GLP-1(A8G/G22E/R36S)-Fn8-p246-COL18NC1 (ligand)
chain: B11 chain with R30S
B15: GLP-1(A8S/G22E)-Fn8-p246-COL18NC1 (ligand)
chain: B11 chain with G2S
B16: GLP-1(A8G/G22E/R36G)-Fn8-p271-COL18NC1 (ligand)
chain: HGEGTFTSDVSSYLEEQAAKEFIAWLVKGGGSGGGSGGGSGGGSGGGSGSGGAVPPPTDLRFTNIGPDTMRVTWAPPPSIDLTNFLVRYSPVKNEEDVAELSISPSDNAVVLTNLLPGTEYVVSVSSVYEQHESTPLRGRQKTGGGGSGGGSGGSGSESGSGGGSTSSGTGSETESPGGSGSESGSGGPSSAGSGGSGSESGSGGSGSSGPGSTGGGSGSESGSGGPGSSGTGGTATGGSGSESGSGGPGSSGPGSTGSGGSGSESGSGGSGSSGTGSTGGGSGSESGSGGPGSPRPGSTGTGGSGSESGSGGPGSSERGSAGGGSGSESGSGGTSESSASGSTGGGSGSESGSGGSESGSGGSGSESGSGGPESPGSGGGSGSESGSGGTSGSTGGSGSESGSGGGGSGGGSGGGASSGVRLWATRQAMLGQVHEVPEGWLIFVAEQEELYVRVQNGFRKVQLEARTPLPRG
B17: GLP-1-Fn7-COL18NC1 (ligand)
chain: HAEGTFTSDVSSYLEGQAAKEFIAWLVKGRGGGGSGGGGTPLSPPTNLHLEANPDTGVLTVSWERSTTPDITGYRITTTPTNGQQGNSLEEVVHADQSSCTFDNLSPGLEYNVSVYTVKDDKESVPISDTIIPAGGGSGGGASSGVRLWATRQAMLGQVHEVPEGWLIFVAEQEELYVRVQNGFRKVQLEARTPLPRG
B18: GLP-1(A8G/G22E/R36G)-TNCfn3-p246-COL18NC1 (ligand)
chain: HGEGTFTSDVSSYLEEQAAKEFIAWLVKGGGSGGGSGGGSGGGSGGGSGSGGRLDAPSQIEVKDVTDTTALITWFKPLAEIDGIELTYGIKDVPGDRTTIDLTEDENQYSIGNLKPDTEYEVSLISRRGDMSSNPAKETFTTGGGGSGGGSGSGSESGSGGGSTSSGTGSETESPGSGSESGSGPSSAGSGSGSESGSGSGSSGPGSTGGSGSESGSGPGSSGTGGTATGSGSESGSGPGSSGPGSTGSGSGSESGSGSGSSGTGSTGGSGSESGSGPGSPRPGSTGTGSGSESGSGPGSSERGSAGGSGSESGSGTSESSASGSTGGSGSESGSGSESGSGSGSESGSGPESPGSGGSGSESGSGTSGSTGSGSESGSGGGSGGGSGGGASSGVRLWATRQAMLGQVHEVPEGWLIFVAEQEELYVRVQNGFRKVQLEARTPLPRG

Molecular target: human GLP-1 receptor (GLP-1R) (human, UniProt P43220 24-463)
Experiment: cell-based or functional assay

| Binder | EC50 (nM) measured by cAMP assay [nM] |
| --- | --- |
| B1 | 0.4 |
| B2 | 0.5 |
| B3 | 0.6 |
| B4 | 2.1 |
| B5 | 1.3 |
| B6 | 1.3 |
| B7 | 1.3 |
| B8 | 1.2 |
| B9 | 0.5 |
| B10 | 0.6 |
| B11 | 0.5 |
| B12 | 0.5 |
| B13 | 0.4 |
| B14 | 0.4 |
| B15 | 0.6 |
| B16 | 0.4 |
| B17 | 2.2 |
| B18 | 0.5 |
